# Measured values as given in FireProtDB (doi:10.1021/bi5005975).
# Where “and” joins values, the source holds several entries; their conditions need not be identical. Equal values may be shown once.
# B1: wild type, Q9NAV7 (protein)
# chain: MGFKQDIATLRGDLRTYAQDIFLAFLNKYPDEKRNFKNYVGKSDQELKSMAKFGDHTEKVFNLMMEVADRATDCVPLASDASTLVQMKQHSGLTTGNFEKLFVALVEYMRASGQSFDSQSWDRFGKNLVSALSSAGMK
# B2: wild type, Q9NAV8 (protein)
# chain: MGFKQDIATIRGDLRTYAQDIFLAFLNKYPDERRYFKNYVGKSDQELKSMAKFGDHTEKVFNLMMEVADRATDCVPLASDANTLVQMKQHSSLTTGNFEKLFVALVEYMRASGQSFDSQSWDRFGKNLVSALSSAGMK
# Settings: Amphitrite ornata; pH 7; 20 °C; GdnHCl; UV?visible spectrophotometer; potassium phosphate 100 mM; transition: 2; reversible: yes; whole UniProt chain shown
Protein,denaturant midpoint (higher = more stable) [M],unfolding free energy [kcal/mol]
B1,1.09,2.21

# Same assay, conditions: Amphitrite ornata; pH 7; 20 °C; Urea; UV?visible spectrophotometer; potassium phosphate 100 mM; transition: 2; reversible: yes; whole UniProt chain shown
Protein,denaturant midpoint (higher = more stable) [M],unfolding free energy [kcal/mol]
B1,4.12,2.42

# Same assay, conditions: Amphitrite ornata; pH 7; Thermal; DSC; degassed buffer (potassium phosphate) 100 mM; transition: 2; reversible: yes; whole UniProt chain shown
Protein,Tm,unfolding enthalpy (calorimetric),unfolding enthalpy (van 't Hoff)
B1,47.7 °C and 48.6 °C,165 kcal/mol and 166 kcal/mol,336 kcal/mol and 396 kcal/mol
B2,50.5 °C and 49.8 °C,183 kcal/mol and 163 kcal/mol,384 kcal/mol and 412 kcal/mol

# Same assay, conditions: Amphitrite ornata; pH 7; Thermal; UV?visible spectrophotometer; potassium phosphate 100 mM; transition: 2; reversible: yes; whole UniProt chain shown
row,Protein,Tm [°C]
1,B1,46
